B1: full-length antibody 4-1E8 (antibody, human IgG1, V domains shown)
VH: QIQLVQSGAEVKMPGASVTISCEASGYNFISYYIHWVRQAPGQGLEWMGFVVPSGGAAGYTQKFQGRLTVTRDTSTSTVYMDLNSLTSDDTAVYYCVREMSGGWFDFWGQGTLVTVSS
VL: DIVMTQSPSSLSASVGDRVTITCRASQGIRNDLGWYQQKPGKAPKLLIYAASTLQSGVPSRFSGSGSGTDFTLTISSLQAEDVAVYYCQQYYSTPLTFGPGTKVDIK
notes: Tested as a full-length antibody made from the scFv's VH and VL in 293T cells; the summary speaks of a human IgG1 constant region, and ADCC activity is reported
B2: full-length antibody 3-1E4 (antibody, human IgG1, V domains shown)
VH: QIQLVQSGAEVKKPGSSVKVSCKASGGTFSSYAISWVRQAPGQGLEWMGGIIPIFGTANYAQKFQGRVTITADKSTSTAYMELSSLRSEDTAVYYCAGGGAVADNSYWGQGTLVTVSS
VL: DIRMTQSPSSLSASVGDRVTITCRASQGIRNDLGWYQQKPGKAPKLLIYAASSLQSGVPSRFSGSGSGTDFTLTISSLQPEDFATYYCLQDYNYPRTFGQGTKVEIK
notes: Tested as a full-length antibody; the summary speaks of human IgG1
B3: full-length antibody 3-1B11 (antibody, human IgG1, V domains shown)
VH: EVQLVESGGGLVQPGGSLRLSCAASGFTFSDYDMIWVRQAPGKGLEWVAVISYDGSNKYYADSVKGRFTISRDNSKNTLYLQMNSLRAEDTAVYYCAKEFFGAFDIWGQGTMVTVSS
VL: SSELTQDPAVSVALGQTVTITCQGDSLNYYYANWFQLKPGQAPVLVLFGKNNRPSGIPDRFSGSYSGSTASLTITGAQAEDDADYYCNSRDSGGNPWVFGGGTKLTVL
notes: as for B2

Molecular target: T1, Rhesus PDL1 (expression construct transiently transfected into 293T cells) (Rhesus, UniProt F6VEW6 19-290)
T1 construct: whole, on cells
Assay: FACS on 293T cells transiently transfected with Rhesus PDL1
Description: (B) 293T cells were transiently transfected with Rhesus PDL1 expression construct. Embodiments 4-1E8, 3-1E4 and 3-1B11 were tested and compared to control.

Row | binding result | Binder
1 | binds | B1
2 | binds | B2
3 | binds | B3

Molecular target: T2, Rhesus PDL1-GFP (expression construct transiently transfected into 293T cells) (Rhesus, UniProt F6VEW6 19-290)
T2 construct: whole, on cells; not shown: GFP fused to PDL1
Assay: FACS on 293T cells transiently transfected with Rhesus PDL1-GFP
Description: (A) 293T cells were transiently transfected with Rhesus PDL1-GFP expression construct. Embodiments 4-1E8, 3-1E4 and 3-1B11 were tested and compared to control.

T2 sequence (chain, as listed by the source): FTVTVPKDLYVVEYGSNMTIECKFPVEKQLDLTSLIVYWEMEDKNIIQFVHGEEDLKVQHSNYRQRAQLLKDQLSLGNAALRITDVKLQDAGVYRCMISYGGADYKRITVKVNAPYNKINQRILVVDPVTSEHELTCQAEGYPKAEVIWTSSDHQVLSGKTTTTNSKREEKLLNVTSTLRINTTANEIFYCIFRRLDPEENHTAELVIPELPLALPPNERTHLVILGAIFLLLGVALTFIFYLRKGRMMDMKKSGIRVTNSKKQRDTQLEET

Row | binding result | Binder
4 | binds | B1
5 | binds | B2
6 | binds | B3
